Data reported in patent publication US20140199714A1, “METHOD FOR DETECTING CANCER CELLS METASTASIZING INTO SENTINEL LYMPH NODE” (SHINSHU UNIVERSITY, priority 2008, published 2014).

Experiments:
Type in all cases: cell-based
ICAM-1 on human LECs [1] = test: Immunohistochemical expression of ICAM-1 on cultured human LECs; conditions: 48 hrs. simultaneous treatment with 10^−7 or 10^−6M antagonist; n=5
Description: (§1) Using an indirect immunohistochemical technique, the inventors examined the effects of the supernatants of culture medium of two kinds of carcinoma cells, MDA-MB-231 and MCF-7, on the expression of adhesion molecules such as E-selectin, P-selectin, vascular cell adhesion molecule (VCAM)-1, and intercellular adhesion molecule (ICAM)-1 on the human LECs. The carcinoma cells were plated in DMEM/F12 with 10% FBS, which was replaced the following day with DMEM/F12 with 3% FBS, and then collected after overnight culture. The collected solution was centrifuged at 2,000 rpm for 5 min. at 4° C. To examine the effects of the supernatants on the expression of the adhesion molecules on the human LECs, 1 mL of each collected solution was added to starvation culture medium, EBM-2 with 3% FBS of the human LECs, and then stimulated for 48 hrs. on the cells. In some experiments, the supernatant solutions at different concentrations (1/100 or 1/10,000 dilution) were constructed with appropriate volumes of DMEM/F12 with 3% FBS.
Indirect immunohistochemical studies were performed on the cultured LECs seeded or glass slides coated with type I collagen, and then the cells were fixed with 3.3% formalin in phosphate-buffered saline solution (PBS), for 20 min. at room temperature. […]
In some experiments, the effects of 10 ng/mL CCL2 on the immunohistochemical expression of ICAM-1 on the human LECs were also evaluated using the same procedure as that mentioned above after overnight neutralization of CCL2 in the starvation culture medium with a CCL2 specific antibody (1.0 μg/mL). […]
To quantitatively examine the immunohistochemical data concerning the expression of ICAM-1 on the human LECs, the high-resolution digital microphotographs were processed using the SCION IMAGE analysis program. […]

E-selectin on human LECs = test: Immunohistochemical expression of E-selectin on cultured human LECs
Description: as §1
(§2) Indirect immunohistochemical studies were performed on the cultured LECs seeded or glass slides coated with type I collagen, and then the cells were fixed with 3.3% formalin in phosphate-buffered saline solution (PBS), for 20 min. at room temperature. The cells were washed three times with PBS, and then incubated overnight at 4° C. with primary polyclonal human antisera to E-selectin/CD62E (dilution 10 μg/mL, available from R&D Systems, US), P-selectin/CD62P (dilution 10 μg/mL, available from R&D Systems, US), VCAM-1/CD106 (dilution 10 μg/mL, available from R&D Systems, US), and ICAM-1/CD54 (dilution 10 μg/mL, available from R&D Systems, US).
(§3) Before primary staining, the cultured cells were permeabilized with 0.1% TRITON-X. After washing three times in PBS, the cells were incubated for 1 hr. at room temperature with 1:100 diluted ALEXA FLUOR 488 donkey anti-mouse IgG (available from Invitrogen, US). The nuclei of cultured cells were counter-stained and mounted with PROLONG GOLD antifade reagent with 4′-6-diamidine-2-phenylindole (DAPI) (available from Molecular Probes, US), examined by a fluorescent microscope (Leica, Switzerland), and photographed.
(§4) Immunohistochemistry was performed on the cultured human LECs or the fresh-frozen SLNs isolated from the breast cancer patients. In brief, the cultured LECs were fixed with 10% formalin in the phosphate-buffered saline solution (PBS) at room temperature. The cells were incubated for 4 hrs. at room temperature with primary polyclonal human antisera platelet-endothelial cell adhesion molecule (PECAM)-1 (dilution 1:100, available from BD Biosciences, US), lymphatic vessel endothelial hyaluronan receptor (LYVE)-1 (dilution 1:50, available from RELIATech, Germany), PROX-1 (dilution 1:50, available from AngioBio, US), podoplanin (dilution 1:50, available from AngioBio, US), vascular endothelium growth factor receptor 3 (VEGF R3) (dilution 1:50, available from Santa Cruz, US), E-selectin/CD62E (dilution 1:50, available from R&D systems, US), P-selectin/CD62P (dilution 1:50, available from R&D systems, US), vascular cell adhesion molecule (VCAM)-1/CD106 (dilution 1:50, available from R&D systems, US), and intercellular adhesion molecule (ICAM)-1/CD54 (dilution 1:50, available from R&D systems, US). Before the staining, permeabilization of the cultured cells with 0.1% TRITON-X was performed. Then, the cells were stained using the following antibodies: ALEXA FLUOR 488 chicken anti-rabbit IgG or ALEXA FLUOR 488 donkey anti-mouse IgG (available from Invitrogen, US). The nuclei of the cultured cells were counter-stained and mounted with ProLong Gold antifade reagent with 4′-6-diamidine-2-phenylindole (DAPI) (available from Molecular Probes, US). The cultured cells were examined by a fluorescent microscope (available from Leica, Germany) and photographed. […]

P-selectin on human LECs = test: Immunohistochemical expression of P-selectin on cultured human LECs; conditions: 48 hrs. treatment with 100 ng/mL IL-6, 100 ng/mL VEGF-A, or 500 ng/mL VEGF-C
Description: as §1, §2
Before primary staining, the cultured cells were permeabilized with 0.1% TRITON-X. After washing three times in PBS, the cells were incubated for 1 hr. at room temperature with 1:100 diluted ALEXA FLUOR 488 donkey anti-mouse IgG (available from Invitrogen, US). […]

VCAM-1 on human LECs = test: Immunohistochemical expression of VCAM-1 on cultured human LECs; conditions: for staining with VCAM-1 on human LECs: 48 hrs. treatment with 100 ng/mL IL-6, 100 ng/mL VEGF-A, or 500 ng/mL VEGF-C; for expression of VCAM-1 on human LECs: 18 hrs.-stimulation with 10 ng/mL chemokine
Description: as §1, §2, §3, §4

ICAM-1 on human LECs [2] = test: Immunohistochemical expression of ICAM-1 on cultured human LECs; conditions: for staining with ICAM-1 on human LECs: 48 hrs. treatment with 100 ng/mL IL-6, 100 ng/mL VEGF-A, or 500 ng/mL VEGF-C; for expression of ICAM-1 on human LECs: 18 hrs.-stimulation with 10 ng/mL chemokine
human LECs = test: Proliferative ability of human LECs with lymphangiogenic factors
[3] = 48 hrs. treatment with 100 ng/mL IL-6, 100 ng/mL VEGF-A, or 500 ng/mL VEGF-C
[4] = 18 hrs.-stimulation with 10 ng/mL chemokine

Row | Molecule | proliferative ability of the LECs (human LECs) | expression of E-selectin on human LECs (E-selectin on human LECs; [4]) | expression of VCAM-1 on human LECs (VCAM-1 on human LECs) | expression of ICAM-1 on human LECs (ICAM-1 on human LECs [2]) | also measured
1 | C#CCn1c(=O)c2c(ncn2C)n(C)c1=O [DMPX, 3,7-dimethyl-1-propargyl xanthine] | – | – | – | – | effect on MDA-MB-231 supernatant-mediated expression of ICAM-1 on human LECs (ICAM-1 on human LECs [1]): no significant effect
2 | CCCn1c(=O)c2[nH]c(C3CCCC3)nc2n(CCC)c1=O [DPCPX, 8-cyclopentyl-1,3-dipropylxanthine] | – | – | – | – | effect on MDA-MB-231 supernatant-mediated expression of ICAM-1 on human LECs (ICAM-1 on human LECs [1]): no significant effect
3 | IL-6: cytokine | – | – | – | – | expression of E-selectin on human LECs (E-selectin on human LECs; [3]): No or little expression; staining by P-selectin antiserum on human LECs (P-selectin on human LECs): strongly stained; staining with VCAM-1 on human LECs (VCAM-1 on human LECs): Slight staining; staining with ICAM-1 on human LECs (ICAM-1 on human LECs [2]): Slight staining
4 | VEGF | Sthenia of proliferative ability | – | – | – | –
5 | basic-FGF: basic fibroblast growth factor, lymphangiogenic factor | Sthenia of proliferative ability | – | – | – | –
6 | CCL21: chemokine (protein, UniProt O00585 24-134, looked up) C-C motif chemokine 21: SDGGAQDCCLKYSQRKIPAKVVRSYRKQEPSLGCSIPAILFLPRKRSQAELCADPKELWVQQLMQHLDKTPSPQKPAQGCRKDRGASKTGKKGKGSKGCKRTERSQTPKGP | – | Little or no expression | Little or no expression | slight staining | –
7 | CCL1: chemokine (protein, UniProt P22362 24-96, looked up) C-C motif chemokine 1: KSMQVPFSRCCFSFAEQEIPLRAILCYRNTSSICSNEGLIFKLKRGKEACALDTVGWVQRHRKMLRHCPSKRK | – | Little or no expression | Little or no expression | slight staining | –
8 | VEGF-C: growth factor; lymphangiogenic factor (protein, UniProt P49767 112-227, looked up) Vascular endothelial growth …: AHYNTEILKSIDNEWRKTQCMPREVCIDVGKEFGVATNTFFKPPCVSVYRCGGCCNSEGLQCMNTSTSYLSKTLFEITVPLSQGPKPVTISFANHTSCRCMSKLDVYRQVHSIIRR | Sthenia of proliferative ability | – | – | – | expression of E-selectin on human LECs (E-selectin on human LECs; [3]): No or little expression; staining by P-selectin antiserum on human LECs (P-selectin on human LECs): strongly stained; staining with VCAM-1 on human LECs (VCAM-1 on human LECs): Slight staining; staining with ICAM-1 on human LECs (ICAM-1 on human LECs [2]): Slight staining
9 | CCL12: chemokine (protein, UniProt Q62401 23-104, looked up) C-C motif chemokine 12: GPDAVSTPVTCCYNVVKQKIHVRKLKSYRRITSSQCPREAVIFRTILDKEICADPKEKWVKNSINHLDKTSQTFILEPSCLG | – | Little or no expression | Little or no expression | slight staining | –
